The record followed here is patent publication US20030023032A1.

The experiment concerns the target sigma 54 (sigma^54) transcription factor from Vibrio harveyi, product of the rpoN gene (Vibrio harveyi). In words: cell-based or functional assay.

With “LuxO D47E ("locked" form mimicking activated phospho-LuxO), Vibrio harveyi (from UniProt P0C5S5 1-453)”, the % W.T. Lux (bioluminescence per cell at high cell density); strain JAF548, luxO D47E, wild type rpoN present (% of wild type) turned out to be 0.002; the % W.T. Lux; strain BNL244, luxO D47E, rpoN::Cm^r (sigma^54 absent) (% of wild type) was 77; the % W.T. Lux; strain BNL244, luxO D47E, rpoN::Cm^r, with Plac-rpoN in trans (sigma^54 restored) (% of wild type) came out at 1.4; the Siderophore units (chromazurol S assay); strain JAF548, luxO D47E, wild type rpoN present (siderophore units) worked out at 50. This substance also came in with a Siderophore units; strain BNL244, luxO D47E, rpoN::Cm^r (sigma^54 absent) (siderophore units) of 4 and a Siderophore units; strain BNL244, luxO D47E, rpoN::Cm^r, with Plac-rpoN in trans (sigma^54 restored) (siderophore units) of 25.
“phospho-LuxO (wild type LuxO, constitutively phosphorylated in luxN L166R strains), Vibrio harveyi (from UniProt P0C5S5 1-453)” had a % W.T. Lux; strain BNL248, luxN L166R, rpoN::Cm^r (sigma^54 absent) (% of wild type) of 55; a % W.T. Lux; strain BNL248, luxN L166R, rpoN::Cm^r, with Plac-rpoN in trans (sigma^54 restored) (% of wild type) of 1.1; a % W.T. Lux; strain JAF549, luxN L166R, wild type rpoN present (% of wild type) of 0.004.
